Source: patent US12723255B2, “Herbicide tolerance genes and methods of use thereof” (priority 2014, dated 2026)

How the values were obtained:
Format in all cases: in vivo
[1] = test system: F1 hybrid maize plants; assay: efficacy field trial for 2,4-D tolerance; conditions: for average injury rating, V4 Growth Stage, 4x 2,4-D / average injury rating, V8 Growth Stage, 4x 2,4-D: 4 lb ae/acre at VE-V2, V4, V8; for average injury rating, V4 Growth Stage, 8x 2,4-D / average injury rating, V8 Growth Stage, 8x 2,4-D: 8 lb ae/acre at VE-V2, V4, V8; for average injury rating, V4 Growth Stage, 16x 2,4-D / average injury rating, V8 Growth Stage, 16x 2,4-D: 16 lb ae/acre at VE-V2, V4, V8
Description: (§1) Separate trait efficacy field trials for quizalofop-P and 2,4-D were conducted at two locations cach with F1 hybrid transgenic plants produced by crossing an inbred plant containing maize event MON89034 with an R1 plant containing MON-HT55 (with a CTP), MON-HTI (with or without a CTP), MON-HT2 (with or without a CTP), MON-HT3 (with a CTP), MON-HT4 (with a CTP), MON-HT5 (with a CTP), MON-HT6 (with a CTP), or MON-HT7 (with a CTP). Transgenic F1 hybrid plants containing maize events NK603×MON89034 were used for comparison as a control.
In the efficacy field trial for 2,4-D tolerance, one of four herbicide treatments was used: (1) 2,4-D amine at 2 lb ac/acre (2×) plus 0.25% v/v non-ionic surfactant (NIS) applied to VE to V2 followed by V4 followed by V8; (2) 2,4-D amine at 4 lb ac/acre (4×) plus 0.25% v/v NIS applied to VE to V2 followed by V4 followed by V8; (3) 2,4-D amine at 8 lb ac/acre (8×) plus 0.25% v/v NIS applied to VE to V2 followed by V4 followed by V8 maize; or (4) 2,4-D amine at 16 lb ac/acre (16×) plus 0.25% v/v NIS applied to VE to V2 followed by V4 followed by V8. Plots were visually rated as above. Tables 14 and 15 show the average injury ratings after herbicide application at V4 or V8 growth stage, respectively.

[2] = test system: F1 hybrid maize plants; assay: efficacy field trial for quizalofop-P tolerance and clethodim sensitivity; conditions: for tolerance to the quizalofop-P application: 1.28 lb ai/acre (16×); for average injury rating, V4 Growth Stage, 4x Quizalofop / average injury rating, V8 Growth Stage, 4x Quizalofop / average injury rating, V4 Growth Stage, 8x Quizalofop / average injury rating, V8 Growth Stage, 8x Quizalofop / average injury rating, V4 Growth Stage, 16x Quizalofop / average injury rating, V8 Growth Stage, 16x Quizalofop / average injury rating, V8 Growth Stage, 1x Clethodim: scale 0 to 100; for average injury rating, V4 Growth Stage, 4x Quizalofop / average injury rating, V8 Growth Stage, 4x Quizalofop: 0.32 lb ai/acre at VE-V2, V4, V8; for average injury rating, V4 Growth Stage, 4x Quizalofop / average injury rating, V8 Growth Stage, 4x Quizalofop / average injury rating, V4 Growth Stage, 8x Quizalofop / average injury rating, V8 Growth Stage, 8x Quizalofop / average injury rating, V4 Growth Stage, 16x Quizalofop / average injury rating, V8 Growth Stage, 16x Quizalofop: with CTP unless label says no CTP; for average injury rating, V4 Growth Stage, 8x Quizalofop / average injury rating, V8 Growth Stage, 8x Quizalofop: 0.64 lb ai/acre at VE-V2, V4, V8; for average injury rating, V4 Growth Stage, 16x Quizalofop / average injury rating, V8 Growth Stage, 16x Quizalofop: 1.28 lb ai/acre at VE-V2, V4, V8; for average injury rating, V8 Growth Stage, 1x Clethodim: clethodim 0.25 lb ai/acre at V8, volunteer control
Description: as §1
In the efficacy field trial for quizalofop-P tolerance and clethodim sensitivity, one of four herbicide treatments was used: (1) quizalofop-P (Assure II) at 0.32 lb ai/acre (4×) plus 0.25% v/v non-ionic surfactant (NIS) applied at VE-V2 growth stage followed by the same at V4 growth stage followed by the same at V8 growth stage; (2) quizalofop-P at 0.64 lb ai/acre (8×) plus 0.25% v/v NIS applied at VE to V2 growth stage followed by the same at V4 growth stage followed by the same at V8 growth stage; (3) quizalofop-P at 1.28 lb ai/acre (16×) plus 0.25% v/v NIS applied at VE to V2 growth stage followed by the same at V4 growth stage followed by the same at V8growth stage; or (4) clethodim at 0.25 lb ai/acre (1×) plus 0.25% v/v NIS applied at V8 growth stage. Plots were visually rated 10-14 days after application for crop injury on a scale of 0 to 100with “0” being none and “100” being complete crop destruction. Tables 14 and 15 show the average injury ratings after herbicide application at V4 or V8 growth stage, respectively.

[3] = test system: F1 hybrid maize plants; assay: efficacy field trial with segregating F1 hybrid plants; conditions: for % Injury from V4 2,4-D / % Injury from V8 2,4-D: 2,4-D amine 2× at VE-V2 (plus quizalofop-P 0.5×), V4, V8; for % Injury from V4 Quizalofop / % Injury from V8 Quizalofop: quizalofop-P 2× at VE-V2, V4, V8
Description: Ten unique engineered proteins optimized for activity at higher temperatures were selected for maize transformation and analysis in plants. DNA constructs were produced for expressing these engineered proteins with codon usage optimized for monocot expression using methods known to those skilled in the art. Enhancers, promoters, leaders, introns, CTPs, and 3′UTRs were tested in various combinations with the engineered proteins in these DNA constructs. The DNA constructs were used to transform immature maize (LH244) embryos with these vectors using Agrobacterium tumifaciens and standard methods known in the art. Regenerated R0 transgenic plantlets were grown in the green house.
Transgenic R0 maize plants were screened by the application of quizalofop-P (2×) plus 2,4-D (2×) at 7 to 10 days following transplant into plugs (generally corresponding to V3-V4 growth stage). All constructs tested produced plants containing unique events that passed the RO screen. The R0 plants were selfed to generate R1 homozygous seed and the R0 was also used as the male to cross with inbred plants containing maize event MON89034 to generate segregating F1 hybrid seed for efficacy field trials.
An efficacy field trial was conducted with segregating F1 hybrid plants, with 50% hemizygous and 50% null for the transgene. Tolerance to quizalofop-P (2×) plus 2,4-D (2×) was assessed using two herbicide application regimens: (1) quizalofop-P (Assure II) at 0.16 lb ai/acre (2×) plus 0.25% v/v non-ionic surfactant (NIS) applied at VE-V2 growth stage followed by the same at V4 growth stage followed by the same at V8 growth stage and (2) 2,4-D amine at 2 lb ae/acre (2×) plus quizalofop-P at 0.04 lb ai/acre (0.5×) plus 0.25% v/v NIS applied at VE-V2 growth stage followed by 2,4-D amine at 2 lb ae/acre (2×) plus 0.25% v/v NIS applied at V4 growth stage followed by the same at V8 growth stage. The 50% of the plants that were null for transgene were removed by the first quizalofop-P application at VE-V2 growth stage. Plots were visually rated 10-14 days after application for crop injury on a scale of 0 to 100 with “0” being none and “100” being complete crop destruction. […] The percentage injury rating with 2× application of 2,4-D at V8 growth stage ranged from a high of 40% to a low of 0. Similarly, the percentage injury rating with 2× application of quizalofop-P at V8 growth stage ranged from a high of 90% to a low of 0. Variation in injury rating between plants expressing the same protein is likely due to variations in construct design or transgene insertion location.

[4] = scale 0 to 100, 2 lb ae/acre at VE-V2, V4, V8, with CTP unless label says no CTP
[5] = scale 0 to 100, with CTP unless label says no CTP
[6] = scale 0 to 100, with CTP unless label says no CTP, listed as MON-HT2 (no CTP)

B1: MON-HT2: engineered oxygenase protein, amino acid sequence SEQ ID NO:18 (protein)
chain: MHAALTPLTNKYRFIDVQPLTGVLGAEITGVDLREPLDDSTWNEILDAFHTYQVIYFPGQAITNEQHIAFSRRFGPVDPVPLLKSIEGYPEVQMIRREANESSRVIGDDWHSDSTFLDAPPAAVVMRAIEVPEYGGDTGFLSMYSAWETLSPTMQATIEGLNVVHSATKVFGSLYQATNWRFSNTSVKVMDVDAGDRETVHPLVVTHPVTGRRALYCNQVYCQKIQGMTDAESKSLLQFLYEHATKFDFTCRVRWKKDQVLVWDNLCTMHRAAPDYAGKFRYLTRTTVAGDKPSR
average injury rating, V4 Growth Stage, 2x 2,4-D [1, 4]: 1.3
average injury rating, V8 Growth Stage, 2x 2,4-D [1, 4]: 2.5
average injury rating, V8 Growth Stage, 2x 2,4-D ([1]; scale 0 to 100, 2 lb ae/acre at VE-V2, V4, V8, with CTP unless label says no CTP, listed as MON-HT2 (no CTP)): 5.0
average injury rating, V4 Growth Stage, 4x 2,4-D [1, 5]: 0.0
average injury rating, V8 Growth Stage, 4x 2,4-D [1, 5]: 3.3
average injury rating, V4 Growth Stage, 4x 2,4-D [1, 6]: 2.5
average injury rating, V8 Growth Stage, 4x 2,4-D [1, 6]: 8.8
average injury rating, V4 Growth Stage, 8x 2,4-D [1, 5]: 4.5
average injury rating, V8 Growth Stage, 8x 2,4-D [1, 5]: 10.0
average injury rating, V4 Growth Stage, 8x 2,4-D [1, 6]: 13.8
average injury rating, V8 Growth Stage, 8x 2,4-D [1, 6]: 13.8
average injury rating, V4 Growth Stage, 16x 2,4-D [1, 5]: 7.5
average injury rating, V8 Growth Stage, 16x 2,4-D [1, 5]: 15.0
average injury rating, V4 Growth Stage, 16x 2,4-D [1, 6]: 21.3
average injury rating, V8 Growth Stage, 16x 2,4-D [1, 6]: 25.0
injury rating after 2,4-D application at V4 growth stage at 8× ([1]; without the CTP): 13.75%
injury rating after 2,4-D application at V4 growth stage at 16× ([1]; without the CTP): 21.25%
tolerance to the quizalofop-P application ([2]; operably linked to a CTP, FIG. 5A): robust tolerance
average injury rating, V4 Growth Stage, 4x Quizalofop [2]: 1.5
average injury rating, V8 Growth Stage, 4x Quizalofop [2]: 2.5
average injury rating, V4 Growth Stage, 4x Quizalofop ([2]; listed as MON-HT2 (no CTP)): 42.5
average injury rating, V8 Growth Stage, 4x Quizalofop ([2]; listed as MON-HT2 (no CTP)): 16.3
average injury rating, V4 Growth Stage, 8x Quizalofop [2]: 0.8
average injury rating, V8 Growth Stage, 8x Quizalofop [2]: 3.8
average injury rating, V4 Growth Stage, 8x Quizalofop ([2]; listed as MON-HT2 (no CTP)): 76.3
average injury rating, V8 Growth Stage, 8x Quizalofop ([2]; listed as MON-HT2 (no CTP)): 52.5
average injury rating, V4 Growth Stage, 16x Quizalofop [2]: 10.0
average injury rating, V8 Growth Stage, 16x Quizalofop [2]: 4.8
average injury rating, V4 Growth Stage, 16x Quizalofop ([2]; listed as MON-HT2 (no CTP)): 82.5
average injury rating, V8 Growth Stage, 16x Quizalofop ([2]; listed as MON-HT2 (no CTP)): 77.5
average injury rating, V8 Growth Stage, 1x Clethodim [2]: 93.3
average injury rating, V8 Growth Stage, 1x Clethodim ([2]; listed as MON-HT2 (no CTP)): 92.0
tolerance to the quizalofop-P application ([2]; without a CTP, FIG. 5B): moderate to poor tolerance
% Injury from V4 2,4-D ([3]; CTP A): 20%
% Injury from V8 2,4-D ([3]; CTP A): 34.17%
% Injury from V4 Quizalofop ([3]; CTP A): 0%
% Injury from V8 Quizalofop ([3]; CTP A): 0%
% Injury from V4 2,4-D ([3]; CTP B): 10.56%
% Injury from V8 2,4-D ([3]; CTP B): 13.33%
% Injury from V4 Quizalofop ([3]; CTP B): 11.67%
% Injury from V8 Quizalofop ([3]; CTP B): 11.67%
% Injury from V4 2,4-D ([3]; CTP C): 12%
% Injury from V8 2,4-D ([3]; CTP C): 12%
% Injury from V4 Quizalofop ([3]; CTP C): 14.33%
% Injury from V8 Quizalofop ([3]; CTP C): 14.33%
% Injury from V4 2,4-D ([3]; CTP None): 20%
% Injury from V8 2,4-D ([3]; CTP None): 33.75%
% Injury from V4 Quizalofop ([3]; CTP None): 0%
% Injury from V8 Quizalofop ([3]; CTP None): 0%
